From IntAct's records for PubMed 8137824

B1: Mating-type protein ALPHA2 (Saccharomyces cerevisiae), P0CY08 (parent)
chain: MNKIPIKDLLNPQITDEFKSSILDINKKLFSICCNLPKLPESVTTEEEVELRDILGFLSRANKNRKISDEEKKLLQTTSQLTTTITVLLKEMRSIENDRSNYQLTQKNKSADGLVFNVVTQDMINKSTKPYRGHRFTKENVRILESWFAKNIENPYLDTKGLENLMKNTSLSRIQIKNWVSNRRRKEKTITIAPELADLLSGEPLAKKKE
partner: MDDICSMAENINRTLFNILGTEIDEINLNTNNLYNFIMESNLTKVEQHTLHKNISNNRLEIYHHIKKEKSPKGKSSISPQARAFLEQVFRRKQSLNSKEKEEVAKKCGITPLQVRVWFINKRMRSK

Variants of: B1
Details: with mata1_yeasx MATA1, P0CY10

Row | Variant | effect of a mutation on the interaction
1 | I67A;L74A;L81A;L88A | disrupting interaction strength
